{
  "source": "paper PMC7566563",
  "target": "Cglo-CDPS-S32A (Candidatus Glomeribacter gigasporarum) (UniProt G2JBB2)",
  "assay": "EMSA",
  "conditions": "8 mM MgCl2; apparent Kd, 3 experiments; 3'-phenylalanylated; native E. coli modifications (s4U8, D16, D20, psi32, psi39, ms2i6A37, m7G46, acp3U47, T54, psi55); EMSA: 75 nM tRNA, 0.1-15 uM enzyme, 20 min at 4 C in buffer A (10 mM MOPS pH 6.7, 200 mM NaCl, 8 mM MgCl2, 5 mM 2-mercaptoethanol); native 12% gel in 90 mM …",
  "data": [
    {"substance": "Phe-tRNAPhe", "values": [
      {"measurement": "Kd", "result": 1.6, "unit": "µM"}
    ]}
  ]
}
